Reference: patent US20210196796A1 (SYNTHEKINE, published 2021)

Columns and labels:
[1] = molecular target: T1, orthogonal hCD122 receptor (hoRb), hCD122 with H133D and Y134F (human, UniProt P14784 27-550); experiment: cell-based or functional assay
T1 sequence: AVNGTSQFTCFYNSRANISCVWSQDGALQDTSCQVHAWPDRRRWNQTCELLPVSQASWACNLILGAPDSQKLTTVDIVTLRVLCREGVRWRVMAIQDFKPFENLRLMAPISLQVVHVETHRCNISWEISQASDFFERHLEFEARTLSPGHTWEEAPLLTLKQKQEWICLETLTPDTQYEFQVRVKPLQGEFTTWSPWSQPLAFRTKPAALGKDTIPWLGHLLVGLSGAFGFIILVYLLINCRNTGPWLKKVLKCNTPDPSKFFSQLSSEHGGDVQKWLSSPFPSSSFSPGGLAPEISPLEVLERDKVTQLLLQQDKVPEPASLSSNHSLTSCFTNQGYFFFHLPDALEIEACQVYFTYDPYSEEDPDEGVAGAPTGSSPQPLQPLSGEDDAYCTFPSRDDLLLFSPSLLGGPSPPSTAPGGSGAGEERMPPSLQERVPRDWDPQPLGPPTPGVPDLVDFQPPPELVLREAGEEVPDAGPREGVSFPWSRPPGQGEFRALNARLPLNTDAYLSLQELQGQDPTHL

[2] = molecular target: T1, orthogonal hCD122 receptor (hoRb), …; experiment: cell-based or functional assay; remark: listed apart in the source

B1: ΔL14, SQVLKA (ligand)
chain: APTSSSTKKTQLQSQLLVLLKAILNGINNYKNPKLTRMLTFKFYMPKKATELKHLQCLEEELKPLEEVLNLAQSKNFHLRPRDLISNINVIVLELKGSETTFMCEYADETATIVEFLNRWITFCQSIISTLT
[1]
  NKL Ortho Proliferation Signal 1:2: 31800
  NKL Ortho Proliferation Signal 1:10: 23500
  NKL Ortho Proliferation Signal 1:50: 12200
  Relative Proliferation Fold Change NKL 1:2: 2.38 fold
  Relative Proliferation Fold Change NKL 1:10: 1.6 fold
  Relative Proliferation Fold Change NKL 1:50: 0.86 fold
[2]
  3F8 Ortho Proliferation Signal 1:2: 30300 cts/min
  3F8 Ortho Proliferation Signal 1:10: 24500 cts/min
  3F8 Ortho Proliferation Signal 1:50: 8130 cts/min
  Relative Proliferation Fold Change 3F8 1:2: 125 fold
  Relative Proliferation Fold Change 3F8 1:10: 26.5 fold
  Relative Proliferation Fold Change 3F8 1:50: 13.2 fold

B2: ΔT3, SQVLKA (ligand)
chain: APSSSTKKTQLQLSQLLVLLKAILNGINNYKNPKLTRMLTFKFYMPKKATELKHLQCLEEELKPLEEVLNLAQSKNFHLRPRDLISNINVIVLELKGSETTFMCEYADETATIVEFLNRWITFCQSIISTLT
[1]
  NKL Ortho Proliferation Signal 1:2: 60800
  NKL Ortho Proliferation Signal 1:10: 64600
  NKL Ortho Proliferation Signal 1:50: 32300
  Relative Proliferation Fold Change NKL 1:2: 4 fold
  Relative Proliferation Fold Change NKL 1:10: 3.73 fold
  Relative Proliferation Fold Change NKL 1:50: 1.99 fold
[2]
  3F8 Ortho Proliferation Signal 1:2: 38900 cts/min
  3F8 Ortho Proliferation Signal 1:10: 34800 cts/min
  3F8 Ortho Proliferation Signal 1:50: 16000 cts/min
  Relative Proliferation Fold Change 3F8 1:2: 30.5 fold
  Relative Proliferation Fold Change 3F8 1:10: 15.1 fold
  Relative Proliferation Fold Change 3F8 1:50: 7.52 fold

B3: R81D, SQVLKA (ligand)
chain: APTSSSTKKTQLQLSQLLVLLKAILNGINNYKNPKLTRMLTFKFYMPKKATELKHLQCLEEELKPLEEVLNLAQSKNFHLDPRDLISNINVIVLELKGSETTFMCEYADETATIVEFLNRWITFCQSIISTLT
[1]
  NKL Ortho Proliferation Signal 1:2: 71800
  NKL Ortho Proliferation Signal 1:10: 73800
  NKL Ortho Proliferation Signal 1:50: 44400
  Relative Proliferation Fold Change NKL 1:2: 3.64 fold
  Relative Proliferation Fold Change NKL 1:10: 4.35 fold
  Relative Proliferation Fold Change NKL 1:50: 3.07 fold
[2]
  3F8 Ortho Proliferation Signal 1:2: 39300 cts/min
  3F8 Ortho Proliferation Signal 1:10: 30000 cts/min
  3F8 Ortho Proliferation Signal 1:50: 10400 cts/min
  Relative Proliferation Fold Change 3F8 1:2: 7.51 fold
  Relative Proliferation Fold Change 3F8 1:10: 13.6 fold
  Relative Proliferation Fold Change 3F8 1:50: 11.5 fold

B4: N88E, SQVLKA (ligand)
chain: APTSSSTKKTQLQLSQLLVLLKAILNGINNYKNPKLTRMLTFKFYMPKKATELKHLQCLEEELKPLEEVLNLAQSKNFHLRPRDLISEINVIVLELKGSETTFMCEYADETATIVEFLNRWITFCQSIISTLT
[1]
  NKL Ortho Proliferation Signal 1:2: 6410
  NKL Ortho Proliferation Signal 1:10: 7090
  NKL Ortho Proliferation Signal 1:50: 6480
  Relative Proliferation Fold Change NKL 1:2: 0.49 fold
  Relative Proliferation Fold Change NKL 1:10: 0.53 fold
  Relative Proliferation Fold Change NKL 1:50: 0.51 fold
[2]
  3F8 Ortho Proliferation Signal 1:2: 326 cts/min
  3F8 Ortho Proliferation Signal 1:10: 588 cts/min
  3F8 Ortho Proliferation Signal 1:50: 850 cts/min
  Relative Proliferation Fold Change 3F8 1:2: 1 fold
  Relative Proliferation Fold Change 3F8 1:10: 1.2 fold
  Relative Proliferation Fold Change 3F8 1:50: 1.44 fold

B5: I86V, SQVLKA (ligand)
chain: APTSSSTKKTQLQLSQLLVLLKAILNGINNYKNPKLTRMLTFKFYMPKKATELKHLQCLEEELKPLEEVLNLAQSKNFHLRPRDLVSNINVIVLELKGSETTFMCEYADETATIVEFLNRWITFCQSIISTLT
[1]
  NKL Ortho Proliferation Signal 1:2: 39900
  NKL Ortho Proliferation Signal 1:10: 38000
  NKL Ortho Proliferation Signal 1:50: 18400
  Relative Proliferation Fold Change NKL 1:2: 3.82 fold
  Relative Proliferation Fold Change NKL 1:10: 2.67 fold
  Relative Proliferation Fold Change NKL 1:50: 1.42 fold
[2]
  3F8 Ortho Proliferation Signal 1:2: 34000 cts/min
  3F8 Ortho Proliferation Signal 1:10: 32600 cts/min
  3F8 Ortho Proliferation Signal 1:50: 15100 cts/min
  Relative Proliferation Fold Change 3F8 1:2: 0.8 fold
  Relative Proliferation Fold Change 3F8 1:10: 3.76 fold
  Relative Proliferation Fold Change 3F8 1:50: 3.66 fold

B6: R81Y, SQVLKA (ligand)
chain: APTSSSTKKTQLQLSQLLVLLKAILNGINNYKNPKLTRMLTFKFYMPKKATELKHLQCLEEELKPLEEVLNLAQSKNFHLYPRDLISNINVIVLELKGSETTFMCEYADETATIVEFLNRWITFCQSIISTLT
[1]
  NKL Ortho Proliferation Signal 1:2: 59800
  NKL Ortho Proliferation Signal 1:10: 77900
  NKL Ortho Proliferation Signal 1:50: 49500
  Relative Proliferation Fold Change NKL 1:2: 3.64 fold
  Relative Proliferation Fold Change NKL 1:10: 4.64 fold
  Relative Proliferation Fold Change NKL 1:50: 3.43 fold
[2]
  3F8 Ortho Proliferation Signal 1:2: 35800 cts/min
  3F8 Ortho Proliferation Signal 1:10: 46000 cts/min
  3F8 Ortho Proliferation Signal 1:50: 16500 cts/min
  Relative Proliferation Fold Change 3F8 1:2: 4.14 fold
  Relative Proliferation Fold Change 3F8 1:10: 16.6 fold
  Relative Proliferation Fold Change 3F8 1:50: 17.6 fold

B7: V91R, SQVLKA (ligand)
chain: APTSSSTKKTQLQLSQLLVLLKAILNGINNYKNPKLTRMLTFKFYMPKKATELKHLQCLEEELKPLEEVLNLAQSKNFHLRPRDLISNINRIVLELKGSETTFMCEYADETATIVEFLNRWITFCQSIISTLT
[1]
  NKL Ortho Proliferation Signal 1:2: 8530
  NKL Ortho Proliferation Signal 1:10: 5580
  NKL Ortho Proliferation Signal 1:50: 4420
  Relative Proliferation Fold Change NKL 1:2: 0.86 fold
  Relative Proliferation Fold Change NKL 1:10: 0.53 fold
  Relative Proliferation Fold Change NKL 1:50: 0.44 fold
[2]
  3F8 Ortho Proliferation Signal 1:2: 12500 cts/min
  3F8 Ortho Proliferation Signal 1:10: 5140 cts/min
  3F8 Ortho Proliferation Signal 1:50: 2850 cts/min
  Relative Proliferation Fold Change 3F8 1:2: 35.6 fold
  Relative Proliferation Fold Change 3F8 1:10: 10 fold
  Relative Proliferation Fold Change 3F8 1:50: 2.93 fold

B8: N88Q, SQVLKA (ligand)
chain: APTSSSTKKTQLQLSQLLVLLKAILNGINNYKNPKLTRMLTFKFYMPKKATELKHLQCLEEELKPLEEVLNLAQSKNFHLRPRDLISQINVIVLELKGSETTFMCEYADETATIVEFLNRWITFCQSIISTLT
[1]
  NKL Ortho Proliferation Signal 1:2: 4980
  NKL Ortho Proliferation Signal 1:10: 6960
  NKL Ortho Proliferation Signal 1:50: 6240
  Relative Proliferation Fold Change NKL 1:2: 0.43 fold
  Relative Proliferation Fold Change NKL 1:10: 0.53 fold
  Relative Proliferation Fold Change NKL 1:50: 0.5 fold
[2]
  3F8 Ortho Proliferation Signal 1:2: 644 cts/min
  3F8 Ortho Proliferation Signal 1:10: 914 cts/min
  3F8 Ortho Proliferation Signal 1:50: 1070 cts/min
  Relative Proliferation Fold Change 3F8 1:2: 1.25 fold
  Relative Proliferation Fold Change 3F8 1:10: 0.84 fold
  Relative Proliferation Fold Change 3F8 1:50: 0.6 fold

B9: L85V, SQVLKA (ligand)
chain: APTSSSTKKTQLQLSQLLVLLKAILNGINNYKNPKLTRMLTFKFYMPKKATELKHLQCLEEELKPLEEVLNLAQSKNFHLRPRDVISNINVIVLELKGSETTFMCEYADETATIVEFLNRWITFCQSIISTLT
[1]
  NKL Ortho Proliferation Signal 1:2: 56300
  NKL Ortho Proliferation Signal 1:10: 49600
  NKL Ortho Proliferation Signal 1:50: 24200
  Relative Proliferation Fold Change NKL 1:2: 3.94 fold
  Relative Proliferation Fold Change NKL 1:10: 3.34 fold
  Relative Proliferation Fold Change NKL 1:50: 1.71 fold
[2]
  3F8 Ortho Proliferation Signal 1:2: 44300 cts/min
  3F8 Ortho Proliferation Signal 1:10: 41300 cts/min
  3F8 Ortho Proliferation Signal 1:50: 18900 cts/min
  Relative Proliferation Fold Change 3F8 1:2: 39.9 fold
  Relative Proliferation Fold Change 3F8 1:10: 44.6 fold
  Relative Proliferation Fold Change 3F8 1:50: 14.3 fold

B10: Δ88N, SQVLKA (ligand)
chain: APTSSSTKKTQLQLSQLLVLLKAILNGINNYKNPKLTRMLTFKFYMPKKATELKHLQCLEEELKPLEEVLNLAQSKNFHLRPRDLISINVIVLELKGSETTFMCEYADETATIVEFLNRWITFCQSIISTLT
[1]
  NKL Ortho Proliferation Signal 1:2: 4610
  NKL Ortho Proliferation Signal 1:10: 7470
  NKL Ortho Proliferation Signal 1:50: 6690
  Relative Proliferation Fold Change NKL 1:2: 0.42 fold
  Relative Proliferation Fold Change NKL 1:10: 0.59 fold
  Relative Proliferation Fold Change NKL 1:50: 0.58 fold
[2]
  3F8 Ortho Proliferation Signal 1:2: 486 cts/min
  3F8 Ortho Proliferation Signal 1:10: 580 cts/min
  3F8 Ortho Proliferation Signal 1:50: 666 cts/min
  Relative Proliferation Fold Change 3F8 1:2: 2.59 fold
  Relative Proliferation Fold Change 3F8 1:10: 0.79 fold
  Relative Proliferation Fold Change 3F8 1:50: 1.33 fold
